Data reported in US20210088514A1 (ACADEMIA SINICA, published 2021).

Molecular target: T1, epithelial cell adhesion molecule (EpCAM) (UniProt P16422 24-314, limits assumed)
T1 construct: whole, on cells; also called EpCAM membrane protein
T1 sequence (looked up): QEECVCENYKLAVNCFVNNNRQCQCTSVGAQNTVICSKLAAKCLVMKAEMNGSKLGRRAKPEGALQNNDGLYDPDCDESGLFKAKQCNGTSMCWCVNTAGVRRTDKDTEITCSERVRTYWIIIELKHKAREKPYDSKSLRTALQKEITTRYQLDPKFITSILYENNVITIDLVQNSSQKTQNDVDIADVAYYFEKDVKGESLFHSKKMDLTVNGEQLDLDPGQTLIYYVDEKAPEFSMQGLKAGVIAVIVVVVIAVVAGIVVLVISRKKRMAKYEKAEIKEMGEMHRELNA
Test: capture of HCT116 and SAS cells on antibody surface coating, colorimetric read-out at OD 490 nm
Protocol: The binding specificity of biotinylated OC9801 antibody, biotinylated EpAb4-1 antibody and biotinylated EpCam antibody (commercially available from R&D system, USA) were examined using the HCT116 (colorectal) CTCs and SAS (tongue) CTCs.
The CTC binding specificy of the antibodies was determined by colorimetric method, by measuring the absorption optical density at 490 nm.

B1: biotinylated EpAb4-1 antibody (antibody, V domains shown)
VH: QIQLVQSGPELKKPGETVKISCKASGYTFTNYGMNWVKQAPGKGLKWMGWINTYTGEPTYGDDFKGRFAFSLETSASTAYLQINNLKNEDTATYFCARFGRSVDFWGQGTSVTVSS
VL: DIVMTQAAFSNPVTLGTSASISCRSSKSLLHSNGITYLYWYLQKPGQSPQLLIYHMSNLASGVPDRFSSSGSGTDFTLRISRVEAEDVGIYYCAQNLENPRTFGGGTKLEIK
modifications: biotinylated with Sulfo NHS-LC-Biotin; ratio of biotin and antibody 1.5 to 1; sites not stated
notes: Immobilised through streptavidin on the surface coating in the assay; also called bEpAb4-1; biotinylated anti-EpCam antibody
- binding result: binds
